This experiment concerns the target M6P receptor (M6PR). Put plainly: SPR (BIACORE T200), M6PR amine-coupled on CM5 chip, conjugate 200 nM to 12.5 nM, 1:1 Langmuir model. Background: Surface plasmon resonance follows binding to a sensor surface in real time, without labels.

Substance “imiglucerase long-acting conjugate (from UniProt P04062 40-536; P01861 107-327)” came in with an M6PR Binding Affinity (relative to imiglucerase = 100%) of 22%.
